Experimental data published in patent US20220204643A1 (published 2022).

Key:
[1] = molecular target: T1, zinc finger with KRAB and SCAN domains 4, transcript variant X1 (human, UniProt Q969J2 1-545); assay: protein array
T1 construct: on protein array; also called ZKSCAN4
T1 sequence: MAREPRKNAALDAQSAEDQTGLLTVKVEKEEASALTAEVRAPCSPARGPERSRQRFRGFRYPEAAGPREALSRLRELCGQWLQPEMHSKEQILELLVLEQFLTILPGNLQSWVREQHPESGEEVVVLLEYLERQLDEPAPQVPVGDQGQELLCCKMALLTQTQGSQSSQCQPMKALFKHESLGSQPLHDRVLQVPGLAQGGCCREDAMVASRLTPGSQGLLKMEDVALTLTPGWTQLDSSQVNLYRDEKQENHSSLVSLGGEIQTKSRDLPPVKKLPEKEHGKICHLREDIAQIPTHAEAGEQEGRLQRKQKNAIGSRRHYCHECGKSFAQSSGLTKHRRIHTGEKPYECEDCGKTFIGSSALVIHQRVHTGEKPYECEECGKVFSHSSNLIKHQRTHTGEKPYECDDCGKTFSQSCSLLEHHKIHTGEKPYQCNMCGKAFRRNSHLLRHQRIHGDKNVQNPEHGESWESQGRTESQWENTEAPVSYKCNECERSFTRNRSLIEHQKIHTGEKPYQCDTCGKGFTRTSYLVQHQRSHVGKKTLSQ

[2] = molecular target: T2, transforming growth factor beta induced (human, UniProt Q15582 24-683); assay: protein array
T2 construct: on protein array; also called TGFBI
T2 sequence: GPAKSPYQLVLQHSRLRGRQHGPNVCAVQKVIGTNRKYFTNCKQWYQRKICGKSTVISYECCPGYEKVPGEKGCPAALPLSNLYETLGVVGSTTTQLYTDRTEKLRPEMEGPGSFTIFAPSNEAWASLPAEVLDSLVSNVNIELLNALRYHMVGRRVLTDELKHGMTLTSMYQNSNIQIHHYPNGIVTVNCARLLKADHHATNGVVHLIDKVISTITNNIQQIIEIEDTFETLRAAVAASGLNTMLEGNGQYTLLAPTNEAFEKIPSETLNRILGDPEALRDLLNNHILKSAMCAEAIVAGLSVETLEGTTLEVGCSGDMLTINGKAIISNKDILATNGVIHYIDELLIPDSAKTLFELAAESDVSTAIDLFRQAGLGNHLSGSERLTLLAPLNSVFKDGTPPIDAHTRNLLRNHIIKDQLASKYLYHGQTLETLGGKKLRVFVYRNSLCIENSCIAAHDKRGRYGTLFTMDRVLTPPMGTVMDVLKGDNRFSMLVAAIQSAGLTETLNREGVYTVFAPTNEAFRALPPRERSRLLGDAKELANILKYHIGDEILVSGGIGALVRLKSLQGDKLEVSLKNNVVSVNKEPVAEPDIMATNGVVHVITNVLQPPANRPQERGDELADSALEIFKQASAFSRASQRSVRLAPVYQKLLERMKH

[3] = molecular target: T3, BCL2 apoptosis regulator, transcript variant alpha (human, UniProt P10415 1-239); assay: protein array
T3 construct: on protein array
T3 sequence (P10415 whole entry, change not shown): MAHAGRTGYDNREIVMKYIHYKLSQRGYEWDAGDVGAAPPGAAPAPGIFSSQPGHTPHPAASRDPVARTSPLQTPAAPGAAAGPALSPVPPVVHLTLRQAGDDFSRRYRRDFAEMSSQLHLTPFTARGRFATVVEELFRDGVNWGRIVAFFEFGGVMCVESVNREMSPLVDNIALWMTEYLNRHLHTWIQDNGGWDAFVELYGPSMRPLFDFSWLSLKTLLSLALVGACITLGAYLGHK

[4] = molecular target: T4, phosphoglucomutase 2 like 1 (human, UniProt Q6PCE3 1-622 at identity 1.00)); assay: protein array
T4 construct: on protein array; also called PGM2L1
T4 sequence: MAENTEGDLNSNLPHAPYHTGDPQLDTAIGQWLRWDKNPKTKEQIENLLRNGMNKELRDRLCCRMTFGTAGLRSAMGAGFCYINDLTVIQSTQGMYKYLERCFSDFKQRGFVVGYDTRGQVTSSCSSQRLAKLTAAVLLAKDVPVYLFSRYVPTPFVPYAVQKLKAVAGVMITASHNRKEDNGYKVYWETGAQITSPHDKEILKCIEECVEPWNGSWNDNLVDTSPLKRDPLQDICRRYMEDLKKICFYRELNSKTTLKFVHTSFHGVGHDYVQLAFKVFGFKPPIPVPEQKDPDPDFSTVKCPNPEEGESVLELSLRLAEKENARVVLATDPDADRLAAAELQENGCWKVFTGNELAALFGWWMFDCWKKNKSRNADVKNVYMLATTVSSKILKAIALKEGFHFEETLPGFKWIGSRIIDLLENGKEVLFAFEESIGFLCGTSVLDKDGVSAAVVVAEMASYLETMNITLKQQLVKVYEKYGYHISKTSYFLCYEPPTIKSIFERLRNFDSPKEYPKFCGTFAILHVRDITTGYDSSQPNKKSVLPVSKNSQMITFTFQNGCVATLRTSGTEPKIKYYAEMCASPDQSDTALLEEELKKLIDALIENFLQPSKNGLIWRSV

programmed cell death 1 = molecular target: T5, programmed cell death 1 (human, UniProt Q15116 25-288); assay: protein array, with experimental replicate
T5 construct: on protein array; also called PDCD1
T5 sequence (Q15116 25-288 limits assumed): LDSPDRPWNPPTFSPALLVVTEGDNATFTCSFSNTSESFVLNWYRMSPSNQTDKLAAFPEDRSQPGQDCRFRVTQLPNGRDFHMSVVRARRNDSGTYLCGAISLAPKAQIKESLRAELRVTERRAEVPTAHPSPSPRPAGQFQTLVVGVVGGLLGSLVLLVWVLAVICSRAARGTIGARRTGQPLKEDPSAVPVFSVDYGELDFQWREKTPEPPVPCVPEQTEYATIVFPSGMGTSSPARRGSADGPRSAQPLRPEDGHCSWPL

[5] = molecular target: T6, glyoxylate and hydroxypyruvate reductase (human, UniProt Q9UBQ7 1-328); assay: protein array
T6 construct: on protein array; also called GRHPR
T6 sequence: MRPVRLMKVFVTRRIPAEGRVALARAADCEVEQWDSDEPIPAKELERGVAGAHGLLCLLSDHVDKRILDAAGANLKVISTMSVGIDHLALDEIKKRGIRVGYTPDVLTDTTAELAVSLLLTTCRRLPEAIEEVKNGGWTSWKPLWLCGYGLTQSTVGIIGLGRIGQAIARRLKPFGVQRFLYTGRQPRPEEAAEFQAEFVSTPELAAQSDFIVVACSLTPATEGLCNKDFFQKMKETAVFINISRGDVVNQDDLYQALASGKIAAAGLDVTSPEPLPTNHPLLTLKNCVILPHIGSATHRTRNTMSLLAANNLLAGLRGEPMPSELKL

[6] = molecular target: T7, acyl-CoA binding domain containing 6 (human, UniProt Q9BR61 1-282); assay: protein array
T7 construct: on protein array; also called ACBD6
T7 sequence: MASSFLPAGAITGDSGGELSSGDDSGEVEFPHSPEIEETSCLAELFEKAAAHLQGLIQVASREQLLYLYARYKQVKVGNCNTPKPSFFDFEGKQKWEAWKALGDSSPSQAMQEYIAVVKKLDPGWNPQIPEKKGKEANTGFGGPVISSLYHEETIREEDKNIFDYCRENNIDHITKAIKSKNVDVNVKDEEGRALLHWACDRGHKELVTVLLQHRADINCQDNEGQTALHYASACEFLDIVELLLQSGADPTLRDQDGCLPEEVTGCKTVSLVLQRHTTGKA

phosducin like = molecular target: T8, phosducin like (human, UniProt Q13371 2-301); assay: protein array
T8 construct: on protein array; also called PDCL
T8 sequence: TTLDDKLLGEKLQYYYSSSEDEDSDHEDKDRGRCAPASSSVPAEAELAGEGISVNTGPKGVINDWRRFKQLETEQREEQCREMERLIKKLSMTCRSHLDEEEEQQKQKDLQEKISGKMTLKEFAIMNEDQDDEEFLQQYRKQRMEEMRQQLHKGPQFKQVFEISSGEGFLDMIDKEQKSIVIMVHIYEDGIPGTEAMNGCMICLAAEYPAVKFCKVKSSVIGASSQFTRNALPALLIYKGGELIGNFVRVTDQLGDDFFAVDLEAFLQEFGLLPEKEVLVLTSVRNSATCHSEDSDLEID

B1: TBRE1009 (antibody, V domains shown)
VH: EVQLVESGGGLVKPGGSLRLSCVGSGFTFSNYSMNWVRQAPGRGLEWVSSISWGSSYINYADSVKGRFTISRDNAKNSLYLQMTSLTAEDTAVYYCACRRIYQGFDPWGQGTLVT
VL: DIQMTQSPSSLSASVGDRVTISCRASHNINTYLNWYQHKPGKAPKIVIYGASSLQSGVPSRFSGSGSGTDFSLTISSLQREDFATYFCQQSFNTVLTFGGGTRVDI
notes: VH/VL only
- binding result [1]: binds

B2: TSTO1008 (antibody, V domains shown)
VH: AVQLVQSGAEVKKPGESLRISCKGSGYSFSTYWIIWVRQMPGKGLEWIGRFDPSDSYNVNSPSFQGHVTISADTSINTAYLQWSSLKASDSAMYYCARRSDKAVPGTFDQWGQGTLVTVSS
VL: RSVLTQPPSVSAAPGQKVIISCSGSSSNIGNNYVSWYQQFLGTAPKLLIYDTDKRPSGIPDRFSGSKSGTSATLGITGLQTGDEAHYYCATWDSSLRAGPVVFGGGTKLTVLG
notes: VH/VL tied via antigen in summary, not by name in this stretch
- binding result [2]: binds

B3: TSTO1010 (antibody, V domains shown)
VH: EVQLVESGGGLVKPRGSLRLSCAASGFTFSAYGMNWVRQAPGKGLEWVSSISGDSRDIYYGASMKGRFTISRDNAKSSLYLQMNSLRAEDTAVYYCARGEGGELWAFDYWGLGVLVTVSS
VL: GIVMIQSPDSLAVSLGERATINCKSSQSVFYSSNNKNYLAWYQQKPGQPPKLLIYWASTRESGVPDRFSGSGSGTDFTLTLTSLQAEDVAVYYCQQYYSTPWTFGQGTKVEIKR
notes: as for B2
- binding result [3]: binds

B4: TTES1002 (antibody, V domains shown)
VH: QVQLQESGPGLVKPSETLSLICTVSGASVNSGTHFWSWIRQPPGKGLEWIGYVYYSGNTNYNPSLKSRVAISVDTSKNQFSLKLTSVTSADTAVYYCARDFDDGYDIRYWGQGTRVSVSS
VL: QSALTQPASVSGSPGQSITISCTGSSNDIGRYKYVSWFQHHPGRAPKLIIYEVNNRPSGLSHRFSGSKSGNTASLTISGLQAEDEADYYCCSYTSSLTYVFGTGTAVTVL
notes: as for B2
- binding result [4]: binds

B5: TTES1003 (antibody, V domains shown)
VH: VVQLVESGGGLVQPGGSLRLSCSASGFTFSSYAMHWVRQAPGKGLEYVSAISSNGGSTYYADSVKGRFTISRDNSKNTLYLQMSSLRAEDTAVYYCVKSPVAANDAFDIWGQGTMVTVSS
VL: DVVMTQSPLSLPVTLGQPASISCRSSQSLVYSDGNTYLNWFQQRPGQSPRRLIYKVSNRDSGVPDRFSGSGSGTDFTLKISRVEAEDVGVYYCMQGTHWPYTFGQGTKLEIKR
notes: as for B2
- binding result (programmed cell death 1): binds

B6: TTES1004 (antibody, V domains shown)
VH: EVQLVESGGGLVQPGGSLRLSCVASGFTFSSYSMNWVRQAPGKGLKWVSYISSSRSTIYNADSVKGRFTISRDNAKKSLYLQMNSLRAEDTAVYYCARVSVAAPTCLDYWGQGTLVTVSS
VL: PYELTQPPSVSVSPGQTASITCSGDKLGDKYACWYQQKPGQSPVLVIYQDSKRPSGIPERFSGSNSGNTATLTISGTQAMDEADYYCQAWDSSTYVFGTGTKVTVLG
notes: as for B2
- binding result [5]: binds

B7: TTES1006 (antibody, V domains shown)
VH: EVQLVESGGGLVQPGGSLRLSCAASGFTFSKFWMHWVRQAPGKGLVWLSRINTDGTVTTYADSVKGRFTISRDNAKSTLYLQMNSLRVEDTAVYYCAGGGSQVDFWGQGTLVTVSS
VL: PYELTQPPSVSVSPGQTASIACSGDNLGNKYAWWYRQKPGQSPVLVMYKDNKRPSGIPERFSGSNSGNTATLTISGTQAMDEADYYCQTWDSSTVIFGGGTKLTVQ
notes: as for B2
- binding result [6]: binds

B8: TTES1007 (antibody, V domains shown)
VH: QITLKESGPTLVKPTQTLTLTCTFSGFSLTTTGVGVGWIRQPPGKALEWLALIYWDDDKRYSPSLKSRLIITKDTSKNQVVLTMTNMDPVDTATYYCAHRFGRGVSYYYYGMDVWGQGTTVTVSS
VL: not shown
notes: as for B2
- binding result (phosducin like): binds
